These are literature values, as cited in patent US20050164248A1, “Compositions isolated from bovine tissues and methods for their use” (priority 1999, published 2005).

The data set concerns Candida albicans. The settings on record: general statement, no value.

B1: Lactoferrin (protein, UniProt P02788 20-710, looked up)
Lactotransferrin: GRRRSVQWCAVSQPEATKCFQWQRNMRKVRGPPVSCIKRDSPIQCIQAIAENRADAVTLDGGFIYEAGLAPYKLRPVAAEVYGTERQPRTHYYAVAVVKKGGSFQLNELQGLKSCHTGLRRTAGWNVPIGTLRPFLNWTGPPEPIEAAVARFFSASCVPGADKGQFPNLCRLCAGTGENKCAFSSQEPYFSYSGAFKCLRDGAGDVAFIRESTVFEDLSDEAERDEYELLCPDNTRKPVDKFKDCHLARVPSHAVVARSVNGKEDAIWNLLRQAQEKFGKDKSPKFQLFGSPSGQKDLLFKDSAIGFSRVPPRIDSGLYLGSGYFTAIQNLRKSEEEVAARRARVVWCAVGEQELRKCNQWSGLSEGSVTCSSASTTEDCIALVLKGEADAMSLDGGYVYTAGKCGLVPVLAENYKSQQSSDPDPNCVDRPVEGYLAVAVVRRSDTSLTWNSVKGKKSCHTAVDRTAGWNIPMGLLFNQTGSCKFDEYFSQSCAPGSDPRSNLCALCIGDEQGENKCVPNSNERYYGYTGAFRCLAENAGDVAFVKDVTVLQNTDGNNNEAWAKDLKLADFALLCLDGKRKPVTEARSCHLAMAPNHAVVSRMDKVERLKQVLLHQQAKFGRNGSDCPDKFCLFQSETKNLLFNDNTECLARLHGKTTYEKYLGPQYVAGITNLKKCSTSPLLEACEFLRK
Consider B1, for which the “inhibitory activity against Candida (statement on control peptide)” value was “extremely inhibitory”.
